These results are taken from patent publication CN117024592A (WEST CHINA HOSPITAL SICHUAN UNIV, dated 2023).

The target of experiment [1] is T1, 人源B7H3(细胞表面表达) (human, UniProt Q5ZPR3 29-534).
T1 construct: whole, on cells; in the ADCC assay the protein is the endogenous B7H3 of A375 cells; also called CD276; 人B7H3
T1 sequence (looked up): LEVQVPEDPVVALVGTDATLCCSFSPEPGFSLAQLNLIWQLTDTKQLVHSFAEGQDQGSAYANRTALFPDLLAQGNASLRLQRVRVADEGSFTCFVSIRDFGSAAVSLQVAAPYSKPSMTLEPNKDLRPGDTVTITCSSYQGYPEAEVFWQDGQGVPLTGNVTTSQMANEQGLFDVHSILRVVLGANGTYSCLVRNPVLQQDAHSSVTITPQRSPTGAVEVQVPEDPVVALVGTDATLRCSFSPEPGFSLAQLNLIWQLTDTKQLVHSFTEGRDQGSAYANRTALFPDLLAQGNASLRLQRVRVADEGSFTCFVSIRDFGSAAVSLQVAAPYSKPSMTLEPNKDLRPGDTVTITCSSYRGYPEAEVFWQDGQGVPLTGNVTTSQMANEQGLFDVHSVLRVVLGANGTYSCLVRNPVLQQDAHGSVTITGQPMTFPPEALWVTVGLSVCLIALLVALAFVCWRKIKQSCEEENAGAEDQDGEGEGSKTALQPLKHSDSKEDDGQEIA
In words: flow cytometry on CHO cells stably expressing B7H3. For orientation: In flow cytometry, cells or beads pass a laser one at a time.

A further experiment addresses T2, B7H3-His重组蛋白 (human, UniProt Q5ZPR3 29-466).
T2 construct: extracellular domain; also called 携带His标签的重组B7H3蛋白; not shown: C-terminal His tag
T2 sequence (looked up): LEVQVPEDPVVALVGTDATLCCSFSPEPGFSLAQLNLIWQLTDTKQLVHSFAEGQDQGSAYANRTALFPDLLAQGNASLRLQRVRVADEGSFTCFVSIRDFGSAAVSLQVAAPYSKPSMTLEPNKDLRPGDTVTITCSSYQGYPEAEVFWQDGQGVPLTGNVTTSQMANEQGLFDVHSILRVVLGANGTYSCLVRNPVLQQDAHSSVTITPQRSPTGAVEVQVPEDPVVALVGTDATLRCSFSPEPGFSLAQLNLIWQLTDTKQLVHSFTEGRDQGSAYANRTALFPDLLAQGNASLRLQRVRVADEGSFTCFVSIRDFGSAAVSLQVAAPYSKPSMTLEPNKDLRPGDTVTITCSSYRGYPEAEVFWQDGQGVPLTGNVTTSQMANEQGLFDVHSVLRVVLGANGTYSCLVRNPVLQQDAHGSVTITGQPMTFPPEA
In words: SPR (Biacore), B7H3-His amine-coupled to CM5 chip, antibody as analyte. Background: SPR reads the build-up and loss of mass on a sensor chip optically.

For a further experiment, the target named is T3, 鼠源B7H3(稳定表达细胞株mB7H3-CHO) (mouse, UniProt Q8VE98 29-316).
T3 construct: whole, on cells; also called 鼠B7H3蛋白
T3 sequence (looked up): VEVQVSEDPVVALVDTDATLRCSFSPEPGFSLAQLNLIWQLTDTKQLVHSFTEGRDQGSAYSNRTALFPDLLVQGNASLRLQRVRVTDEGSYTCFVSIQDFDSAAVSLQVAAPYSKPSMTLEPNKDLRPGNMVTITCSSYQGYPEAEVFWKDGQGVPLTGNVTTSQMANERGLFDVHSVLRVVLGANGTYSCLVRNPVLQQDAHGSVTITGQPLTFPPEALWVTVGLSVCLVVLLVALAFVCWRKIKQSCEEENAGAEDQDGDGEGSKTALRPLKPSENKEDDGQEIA
As to the kind of experiment: flow cytometry, hybridoma supernatant on mB7H3-CHO cells.

The target in experiment [2] is T1, 人源B7H3(细胞表面表达). In words: flow cytometry, hybridoma supernatant on cells expressing B7H3.

B1: 人源化单抗huJ65-2 (antibody, V domains shown)
VH: EVQLVESGGGLVQPGGSLRLSCEASGFTFSSHGMSWVRQAPGKGLEWVATISGGGRYSYYPDNIQGRFTISRDNAKNSLYLQMNSLRAEDTAVYYCARHWDGYLDYWGQGTLVTVSS
VL: DIQMTQSPSSLSASVGDRVTITCRPSENIYSYLAWYQQKPGKAPKLLVYNAKTLTEGAPSRFSGSGSGTDFTLTISSLQPEDFATYYCQHHYGPPPYTFGQGTKVEIK
notes: also called hJ65-2; 人源化抗体2
As for B1, the binding result in the experiment with 人源B7H3(细胞表面表达) [1] and with B7H3-His重组蛋白 was “binds” throughout.

B2: 鼠源单克隆抗体J65(杂交瘤克隆J65上清) (antibody, V domains shown)
VH: EVQLQESGGDLVKPGGSLKLSCEASGFTFSSHGMSWIRQTPDKRLDWVATISGGGRYSYYPDNIQGRFTISRDNAKDTLYLQMSSLQSEDTALYYCARHWDGYLDYWGQGTTLTVSS
VL: DIVMTQTPASLSASVGETVTITCRPSENIYSYLAWYQQKQGKSPQLLVYNAKTLTEGAPSRFSGSGSGTQFSLKINSLQPEDFGIYYCQHHYGPPPYTFGGGTKVEIK
notes: Mouse monoclonal antibody as secreted by the hybridoma (supernatant used in flow cytometry); also called 杂交瘤J65; 单抗J65
Regarding B2, the binding result is “no binding” in the experiment with 鼠源B7H3(稳定表达细胞株mB7H3-CHO), “binds” with 人源B7H3(细胞表面表达) [2] and “binds” with B7H3-His重组蛋白.

B3: 重组鼠源单抗J65(mJ65) (antibody, V domains shown)
VH: B2 VH
VL: B2 VL
notes: also called 重组鼠单抗mJ65
With B3, in the experiment with 人源B7H3(细胞表面表达) [1], the binding result was “binds”.

B4: 嵌合抗体J65(cJ65) (antibody, V domains shown)
VH: B2 VH
VL: B2 VL
notes: also called cJ65-1
On to B4, for which, in the experiment with 人源B7H3(细胞表面表达) [1], the binding result is recorded as “binds”.
